The values that follow come from patent US20140087995A1 (published 2014).

Numbered stars: 1 amine (or outer) side, 2 acyl side, 3 side chain; on linkers, the order of the positions; unused ones are H or OH. Bridge positions count the residues as written; N and C are the ends. * marks the point of attachment. C20 diacid = O=C(O)CCCCCCCCCCCCCCCCCCC(=O)*; γGlu = O=C(O)[C@H](CCC(=O)[*:2])N[*:1]

Usually IC50 stands for the point on the concentration scale where inhibition reaches its midpoint.

T1: human amylin 3(a) receptor (human calcitonin receptor plus RAMP-3) (human, UniProt P30988 25-474; O60896 24-148, limits assumed)
T1 construct: whole, on cells; Whole cells in the luciferase assay (Assay II a); also called hAmylin-R; human amylin receptor
T1 sequence (looked up) 1: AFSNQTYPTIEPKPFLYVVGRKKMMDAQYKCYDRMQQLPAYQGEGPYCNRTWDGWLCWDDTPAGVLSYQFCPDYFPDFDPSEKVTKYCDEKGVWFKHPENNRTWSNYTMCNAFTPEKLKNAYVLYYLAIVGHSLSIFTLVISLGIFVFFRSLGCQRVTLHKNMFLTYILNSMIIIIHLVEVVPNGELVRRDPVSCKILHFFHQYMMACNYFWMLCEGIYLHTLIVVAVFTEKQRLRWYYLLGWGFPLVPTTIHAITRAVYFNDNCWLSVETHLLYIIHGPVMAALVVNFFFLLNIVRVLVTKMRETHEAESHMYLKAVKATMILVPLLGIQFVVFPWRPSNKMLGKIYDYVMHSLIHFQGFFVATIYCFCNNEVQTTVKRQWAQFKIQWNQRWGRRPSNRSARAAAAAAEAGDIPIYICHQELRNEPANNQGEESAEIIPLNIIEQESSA
T1 sequence (looked up) 2: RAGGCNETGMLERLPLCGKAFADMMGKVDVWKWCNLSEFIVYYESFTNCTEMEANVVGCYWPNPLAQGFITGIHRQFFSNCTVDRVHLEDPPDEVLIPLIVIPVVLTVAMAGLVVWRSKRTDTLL

T2: human calcitonin receptor (human, UniProt P30988 25-474)
T2 sequence (looked up): T1 sequence (looked up) 1

B1: N^α1-[(4S)-4-carboxy-4-(19-carboxynonadecanoylamino)butanoyl]-[Glu14,Arg17,Pro21,Pro27,Arg35]-h-amylin (peptide)
peptide: {C20 diacid-γGlu}-KCNTATCATQRLAEFLRHSSPNFGAIPSSTNVGSRTY-NH2
modifications: disulfide 2-7
SMILES: CC[C@H](C)[C@H](NC(=O)[C@H](C)NC(=O)CNC(=O)[C@H](Cc1ccccc1)NC(=O)[C@H](CC(N)=O)NC(=O)[C@@H]1CCCN1C(=O)[C@H](CO)NC(=O)[C@H](CO)NC(=O)[C@H](Cc1c[nH]cn1)NC(=O)[C@H](CCCNC(=N)N)NC(=O)[C@H](CC(C)C)NC(=O)[C@H](Cc1ccccc1)NC(=O)[C@H](CCC(=O)O)NC(=O)[C@H](C)NC(=O)[C@H](CC(C)C)NC(=O)[C@H](CCCNC(=N)N)NC(=O)[C@H](CCC(N)=O)NC(=O)[C@@H](NC(=O)[C@H](C)NC(=O)[C@@H]1CSSC[C@H](NC(=O)[C@H](CCCCN)NC(=O)CC[C@H](NC(=O)CCCCCCCCCCCCCCCCCCC(=O)O)C(=O)O)C(=O)N[C@@H](CC(N)=O)C(=O)N[C@@H]([C@@H](C)O)C(=O)N[C@@H](C)C(=O)N[C@@H]([C@@H](C)O)C(=O)N1)[C@@H](C)O)C(=O)N1CCC[C@H]1C(=O)N[C@@H](CO)C(=O)N[C@@H](CO)C(=O)N[C@H](C(=O)N[C@@H](CC(N)=O)C(=O)N[C@H](C(=O)NCC(=O)N[C@@H](CO)C(=O)N[C@@H](CCCNC(=N)N)C(=O)N[C@H](C(=O)N[C@@H](Cc1ccc(O)cc1)C(N)=O)[C@@H](C)O)C(C)C)[C@@H](C)O
notes: also called compound 16
B2: N^α1-[(4S)-4-carboxy-4-(19-carboxynonadecanoylamino)butanoyl]-[Glu14,Arg17,Pro21,Pro27,Asp35,Pro37]-h-amylin (peptide)
peptide: {C20 diacid-γGlu}-KCNTATCATQRLAEFLRHSSPNFGAIPSSTNVGSDTP-NH2
modifications: disulfide 2-7
SMILES: CC[C@H](C)[C@H](NC(=O)[C@H](C)NC(=O)CNC(=O)[C@H](Cc1ccccc1)NC(=O)[C@H](CC(N)=O)NC(=O)[C@@H]1CCCN1C(=O)[C@H](CO)NC(=O)[C@H](CO)NC(=O)[C@H](Cc1c[nH]cn1)NC(=O)[C@H](CCCNC(=N)N)NC(=O)[C@H](CC(C)C)NC(=O)[C@H](Cc1ccccc1)NC(=O)[C@H](CCC(=O)O)NC(=O)[C@H](C)NC(=O)[C@H](CC(C)C)NC(=O)[C@H](CCCNC(=N)N)NC(=O)[C@H](CCC(N)=O)NC(=O)[C@@H](NC(=O)[C@H](C)NC(=O)[C@@H]1CSSC[C@H](NC(=O)[C@H](CCCCN)NC(=O)CC[C@H](NC(=O)CCCCCCCCCCCCCCCCCCC(=O)O)C(=O)O)C(=O)N[C@@H](CC(N)=O)C(=O)N[C@@H]([C@@H](C)O)C(=O)N[C@@H](C)C(=O)N[C@@H]([C@@H](C)O)C(=O)N1)[C@@H](C)O)C(=O)N1CCC[C@H]1C(=O)N[C@@H](CO)C(=O)N[C@@H](CO)C(=O)N[C@H](C(=O)N[C@@H](CC(N)=O)C(=O)N[C@H](C(=O)NCC(=O)N[C@@H](CO)C(=O)N[C@@H](CC(=O)O)C(=O)N[C@H](C(=O)N1CCC[C@H]1C(N)=O)[C@@H](C)O)C(C)C)[C@@H](C)O
notes: also called compound 11
B3: N^α1-[(4S)-4-carboxy-4-(19-carboxynonadecanoylamino)butanoyl]-[Glu14,Arg17,Pro21,Pro27,His35]-h-amylin (peptide)
peptide: {C20 diacid-γGlu}-KCNTATCATQRLAEFLRHSSPNFGAIPSSTNVGSHTY-NH2
modifications: disulfide 2-7
SMILES: CC[C@H](C)[C@H](NC(=O)[C@H](C)NC(=O)CNC(=O)[C@H](Cc1ccccc1)NC(=O)[C@H](CC(N)=O)NC(=O)[C@@H]1CCCN1C(=O)[C@H](CO)NC(=O)[C@H](CO)NC(=O)[C@H](Cc1c[nH]cn1)NC(=O)[C@H](CCCNC(=N)N)NC(=O)[C@H](CC(C)C)NC(=O)[C@H](Cc1ccccc1)NC(=O)[C@H](CCC(=O)O)NC(=O)[C@H](C)NC(=O)[C@H](CC(C)C)NC(=O)[C@H](CCCNC(=N)N)NC(=O)[C@H](CCC(N)=O)NC(=O)[C@@H](NC(=O)[C@H](C)NC(=O)[C@@H]1CSSC[C@H](NC(=O)[C@H](CCCCN)NC(=O)CC[C@H](NC(=O)CCCCCCCCCCCCCCCCCCC(=O)O)C(=O)O)C(=O)N[C@@H](CC(N)=O)C(=O)N[C@@H]([C@@H](C)O)C(=O)N[C@@H](C)C(=O)N[C@@H]([C@@H](C)O)C(=O)N1)[C@@H](C)O)C(=O)N1CCC[C@H]1C(=O)N[C@@H](CO)C(=O)N[C@@H](CO)C(=O)N[C@H](C(=O)N[C@@H](CC(N)=O)C(=O)N[C@H](C(=O)NCC(=O)N[C@@H](CO)C(=O)N[C@@H](Cc1c[nH]cn1)C(=O)N[C@H](C(=O)N[C@@H](Cc1ccc(O)cc1)C(N)=O)[C@@H](C)O)C(C)C)[C@@H](C)O
notes: also called compound 18
B4: N^α1-[(4S)-4-carboxy-4-(19-carboxynonadecanoylamino)butanoyl]-[Glu14,Arg17,Pro21,Pro27,His34]-h-amylin (peptide)
peptide: {C20 diacid-γGlu}-KCNTATCATQRLAEFLRHSSPNFGAIPSSTNVGHNTY-NH2
modifications: disulfide 2-7
SMILES: CC[C@H](C)[C@H](NC(=O)[C@H](C)NC(=O)CNC(=O)[C@H](Cc1ccccc1)NC(=O)[C@H](CC(N)=O)NC(=O)[C@@H]1CCCN1C(=O)[C@H](CO)NC(=O)[C@H](CO)NC(=O)[C@H](Cc1c[nH]cn1)NC(=O)[C@H](CCCNC(=N)N)NC(=O)[C@H](CC(C)C)NC(=O)[C@H](Cc1ccccc1)NC(=O)[C@H](CCC(=O)O)NC(=O)[C@H](C)NC(=O)[C@H](CC(C)C)NC(=O)[C@H](CCCNC(=N)N)NC(=O)[C@H](CCC(N)=O)NC(=O)[C@@H](NC(=O)[C@H](C)NC(=O)[C@@H]1CSSC[C@H](NC(=O)[C@H](CCCCN)NC(=O)CC[C@H](NC(=O)CCCCCCCCCCCCCCCCCCC(=O)O)C(=O)O)C(=O)N[C@@H](CC(N)=O)C(=O)N[C@@H]([C@@H](C)O)C(=O)N[C@@H](C)C(=O)N[C@@H]([C@@H](C)O)C(=O)N1)[C@@H](C)O)C(=O)N1CCC[C@H]1C(=O)N[C@@H](CO)C(=O)N[C@@H](CO)C(=O)N[C@H](C(=O)N[C@@H](CC(N)=O)C(=O)N[C@H](C(=O)NCC(=O)N[C@@H](Cc1c[nH]cn1)C(=O)N[C@@H](CC(N)=O)C(=O)N[C@H](C(=O)N[C@@H](Cc1ccc(O)cc1)C(N)=O)[C@@H](C)O)C(C)C)[C@@H](C)O
notes: also called compound 17

One assay has as its target T1, human amylin 3(a) receptor (human …). As to the kind of experiment: SPA competition binding, displacement of 125I-rat amylin from membranes of Amylin 3(a)/CRE-luc BHK cells (Assay V). Here is the method:
The binding assay was performed using scintillation proximity assay (SPA) beads (RPNQ0001) from PerkinElmer and cell membranes from the Amylin 3(a)/CRE-luc cells (as described in Assay (II)) were used. Membranes were prepared in the following way; the cells were rinsed with PBS and incubated with Versene for approximately 5 min before harvesting. The cells were flushed with PBS and the cell-suspension was centrifuged for 5 min at 1000 rpm. Cells were homogenized (ultrathurrax) in a buffer containing 20 mM Na-HEPES and 10 mM EDTA (pH 7.4) and centrifuged at 20.000 rpm for 15 min. The resulting pellet was resuspended, homogenized and centrifuged (20.000 rpm, 15 min) in a buffer containing 20 mM Na-HEPES and 0.1 mM EDTA (pH 7.4, buffer 2). The resulting pellet was resuspended in buffer 2 and protein concentration was measured (BCA protein Assay, Pierce). The homogenate was kept cold during the whole procedure. The membranes were kept at −80° C. until use. The assay was performed in a 384 well Optiplate (PerkinElmer) in a total volume of 40 ul. Membranes were mixed with SPA beads. Final concentration of membranes 35 ng/μL final and SPA beads was 0.05 mg/well. Test-compounds were dissolved in DMSO and further diluted in assay buffer (50 mM Hepes, pH 7.4, 1 mM CaCl2, 5 mM MgCl₂, 0.1% OA and 0.02% Tween20). […] The final mixture was incubated with shaking at 400 rpm for 120 min at 25° C. prior to centrifugation (1500 rpm, 10 min). Samples were analyzed on TopCounter™ (Packard). The IC₅₀ was calculated using (one site binding competition analysis) GraphPad Prism5 as a measure of receptor affinity.
(In general: Loss of bound radioactivity is the signal in a displacement assay; it reports binding, not function.)
In the case of B1, the IC50 came out at 0.894 nM.
B2: the half-inhibitory concentration (IC50) amounted to 0.105 nM.
For B3, the IC50 came to 0.554 nM.
On the same count and under the same terms, the same measure for B4: 0.878 nM.

For the next assay, the target named is T2, human calcitonin receptor. As to the kind of experiment: cell-based or functional assay.
Regarding B1, the “hCTR funct. EC50” value worked out at 2220 pM.
Take B2: the “hCTR funct. EC50” value was 112 pM.
Regarding B3, the “hCTR funct. EC50” value worked out at 742 pM.
Regarding B4, the “hCTR funct. EC50” value amounted to 2350 pM.

A further assay deals with T1, human amylin 3(a) receptor (human …). Kind of assay: cell-based or functional assay.
On to B1, for which the “Ratio hCT/hAmylin funct.” value worked out at 6.1 and the “hAmylin-R funct. EC50” value worked out at 363 pM.
As for B2, the “Ratio hCT/hAmylin funct.” value was 0.9 and the “hAmylin-R funct. EC50” value was 120 pM.
For B3, in that order: 4.8 and 154 pM.
Regarding B4, the “Ratio hCT/hAmylin funct.” value was 8.8 and the “hAmylin-R funct. EC50” value amounted to 268 pM.
